Results: patent US20240209076A1 (KODIAK SCIENCES, published 2024)
Changes are numbered by the printed parent chain. In names and notes the source's numbering stands.

B1: anti-IL-6 antibody, heavy chain I51A, G66D / light chain M32L, M50D, N52S, M88Q (antibody, human IgG1, V domains shown)
VH: EVQLVESGGGLVQPGGSLRLSCAASGFTFSPFAMSWVRQAPGKGLEWVAKASPGGSWTYYSDTVTDRFTFSLDTSKSTAYLQMNSLRAEDTAVYYCARQLWGYYALDIWGQGTLVTVSS
VL: DIQLTQSPSSLSASVGDRVTITCSASISVSYLYWYQQKPGKAPKLLIYDDSSLASGVPSRFSGSGSGTDFTLTISSLQPEDFATYYCQQWSGYPYTFGQGTKVEIK
notes: Human IgG1
B2: anti-IL-6 antibody, heavy chain I51F, G66D / light chain M32L, M50D, N52S, M88Q (antibody, human IgG1, V domains shown)
VH: B1 VH with A51F
VL: B1 VL
notes: Human IgG1
B3: anti-IL-6 antibody, heavy chain I51G, G66D / light chain M32L, M50D, N52S, M88Q (antibody, human IgG1, V domains shown)
VH: B1 VH with A51G
VL: B1 VL
notes: Human IgG1
B4: anti-IL-6 antibody, heavy chain I51D, G66D / light chain M32L, M50D, N52S, M88Q (antibody, human IgG1, V domains shown)
VH: B1 VH with A51D
VL: B1 VL
notes: Human IgG1
B5: anti-IL-6 antibody, heavy chain I51E, G66D / light chain M32L, M50D, N52S, M88Q (antibody, human IgG1, V domains shown)
VH: B1 VH with A51E
VL: B1 VL
notes: Human IgG1
B6: anti-IL-6 antibody, heavy chain S35Q, G66D / light chain M32L, M50D, N52S, M88Q (antibody, IgG1, V domains shown)
VH: B1 VH with S35Q, A51I
VL: B1 VL
notes: Full IgG1 (Expi293); VL = variant III
B7: anti-IL-6 antibody, heavy chain T65G, G66D / light chain M32L, M50D, N52S, M88Q (antibody, IgG1, V domains shown)
VH: B1 VH with A51I, T65G
VL: B1 VL
notes: as for B6
B8: anti-IL-6 antibody, heavy chain T65V, G66D / light chain M32L, M50D, N52S, M88Q (antibody, IgG1, V domains shown)
VH: B1 VH with A51I, T65V
VL: B1 VL
notes: as for B6
B9: anti-IL-6 antibody, heavy chain S35T, G66D / light chain M32L, M50D, N52S, M88Q (antibody, IgG1, V domains shown)
VH: B1 VH with S35T, A51I
VL: B1 VL
notes: as for B6
B10: anti-IL-6 antibody, heavy chain T65K, G66D / light chain M32L, M50D, N52S, M88Q (antibody, IgG1, V domains shown)
VH: B1 VH with A51I, T65K
VL: B1 VL
notes: as for B6
B11: anti-IL-6 antibody, heavy chain T63R, G66D / light chain M32L, M50D, N52S, M88Q (antibody, IgG1, V domains shown)
VH: B1 VH with A51I, T63R
VL: B1 VL
notes: as for B6
B12: anti-IL-6 antibody, heavy chain T65Y, G66D / light chain M32L, M50D, N52S, M88Q (antibody, IgG1, V domains shown)
VH: B1 VH with A51I, T65Y
VL: B1 VL
notes: as for B6
B13: anti-IL-6 antibody, heavy chain T65L, G66D / light chain M32L, M50D, N52S, M88Q (antibody, IgG1, V domains shown)
VH: B1 VH with A51I, T65L
VL: B1 VL
notes: as for B6
B14: anti-IL-6 antibody, heavy chain T65F, G66D / light chain M32L, M50D, N52S, M88Q (antibody, IgG1, V domains shown)
VH: B1 VH with A51I, T65F
VL: B1 VL
notes: as for B6
B15: anti-IL-6 antibody, heavy chain S35W, G66D / light chain M32L, M50D, N52S, M88Q (antibody, IgG1, V domains shown)
VH: B1 VH with S35W, A51I
VL: B1 VL
notes: as for B6
B16: anti-IL-6 antibody, heavy chain T63L, G66D / light chain M32L, M50D, N52S, M88Q (antibody, IgG1, V domains shown)
VH: B1 VH with A51I, T63L
VL: B1 VL
notes: as for B6
B17: anti-IL-6 antibody, heavy chain T63D, G66D / light chain M32L, M50D, N52S, M88Q (antibody, IgG1, V domains shown)
VH: B1 VH with A51I, T63D
VL: B1 VL
notes: as for B6
B18: anti-IL-6 antibody, heavy chain T63S, G66D / light chain M32L, M50D, N52S, M88Q (antibody, IgG1, V domains shown)
VH: B1 VH with A51I, T63S
VL: B1 VL
notes: as for B6
B19: anti-IL-6 antibody, heavy chain T65H, G66D / light chain M32L, M50D, N52S, M88Q (antibody, IgG1, V domains shown)
VH: B1 VH with A51I, T65H
VL: B1 VL
notes: as for B6
B20: anti-IL-6 antibody, heavy chain T63F, G66D / light chain M32L, M50D, N52S, M88Q (antibody, IgG1, V domains shown)
VH: B1 VH with A51I, T63F
VL: B1 VL
notes: as for B6
B21: anti-IL-6 antibody, heavy chain T63I, G66D / light chain M32L, M50D, N52S, M88Q (antibody, IgG1, V domains shown)
VH: B1 VH with A51I, T63I
VL: B1 VL
notes: as for B6
B22: anti-IL-6 antibody, heavy chain T63P, G66D / light chain M32L, M50D, N52S, M88Q (antibody, IgG1, V domains shown)
VH: B1 VH with A51I, T63P
VL: B1 VL
notes: as for B6
B23: anti-IL-6 antibody, heavy chain T65E, G66D / light chain M32L, M50D, N52S, M88Q (antibody, IgG1, V domains shown)
VH: B1 VH with A51I, T65E
VL: B1 VL
notes: as for B6
B24: anti-IL-6 antibody, heavy chain T63Y, G66D / light chain M32L, M50D, N52S, M88Q (antibody, IgG1, V domains shown)
VH: B1 VH with A51I, T63Y
VL: B1 VL
notes: as for B6
B25: anti-IL-6 antibody, heavy chain S35V, G66D / light chain M32L, M50D, N52S, M88Q (antibody, IgG1, V domains shown)
VH: B1 VH with S35V, A51I
VL: B1 VL
notes: as for B6
B26: anti-IL-6 antibody, heavy chain T65D, G66D / light chain M32L, M50D, N52S, M88Q (antibody, IgG1, V domains shown)
VH: B1 VH with A51I, T65D
VL: B1 VL
notes: as for B6
B27: anti-IL-6 antibody, heavy chain T63W, G66D / light chain M32L, M50D, N52S, M88Q (antibody, IgG1, V domains shown)
VH: B1 VH with A51I, T63W
VL: B1 VL
notes: as for B6
B28: anti-IL-6 antibody, heavy chain T65P, G66D / light chain M32L, M50D, N52S, M88Q (antibody, IgG1, V domains shown)
VH: B1 VH with A51I, T65P
VL: B1 VL
notes: as for B6
B29: anti-IL-6 antibody, heavy chain T63A, G66D / light chain M32L, M50D, N52S, M88Q (antibody, IgG1, V domains shown)
VH: B1 VH with A51I, T63A
VL: B1 VL
notes: as for B6
B30: anti-IL-6 antibody, heavy chain T65A, G66D / light chain M32L, M50D, N52S, M88Q (antibody, IgG1, V domains shown)
VH: B1 VH with A51I, T65A
VL: B1 VL
notes: as for B6
B31: anti-IL-6 antibody, heavy chain S35Y, G66D / light chain M32L, M50D, N52S, M88Q (antibody, IgG1, V domains shown)
VH: B1 VH with S35Y, A51I
VL: B1 VL
notes: as for B6
B32: anti-IL-6 antibody, heavy chain T63V, G66D / light chain M32L, M50D, N52S, M88Q (antibody, IgG1, V domains shown)
VH: B1 VH with A51I, T63V
VL: B1 VL
notes: as for B6
B33: anti-IL-6 antibody, heavy chain T65W, G66D / light chain M32L, M50D, N52S, M88Q (antibody, IgG1, V domains shown)
VH: B1 VH with A51I, T65W
VL: B1 VL
notes: as for B6
B34: anti-IL-6 antibody, heavy chain T65R, G66D / light chain M32L, M50D, N52S, M88Q (antibody, IgG1, V domains shown)
VH: B1 VH with A51I, T65R
VL: B1 VL
notes: as for B6
B35: anti-IL-6 antibody, heavy chain T63G, G66D / light chain M32L, M50D, N52S, M88Q (antibody, IgG1, V domains shown)
VH: B1 VH with A51I, T63G
VL: B1 VL
notes: as for B6
B36: anti-IL-6 antibody, heavy chain T65S, G66D / light chain M32L, M50D, N52S, M88Q (antibody, IgG1, V domains shown)
VH: B1 VH with A51I, T65S
VL: B1 VL
notes: as for B6
B37: anti-IL-6 antibody, heavy chain T63H, G66D / light chain M32L, M50D, N52S, M88Q (antibody, IgG1, V domains shown)
VH: B1 VH with A51I, T63H
VL: B1 VL
notes: as for B6

What follows are binders tested against human IL-6 (human, UniProt P05231 30-212) (assay: SPR (Biacore), supernatant antibody on Protein A chip, IL-6 flowed, 37 C).
Protocol: (§1) Antibodies were captured on a Protein A chip (GE) by injecting 1:20 cell supernatant dilutions at 10 μL/min for 60 seconds. […] The sensor chip was regenerated by a 60 seconds injection of 10 mM Glycine pH 1.7 at the flow rate of 50 μL/min. […] For this setup, 1 μg/mL of purified antibody was injected over a Protein A chip at 10 μL/min for 25 seconds. […] The sensor chip was regenerated by a 60 seconds injection of 10 mM Glycine pH 1.7 at flow rate of 50 μL/min. Data analysis for supernatant and purified samples were performed using BIAevaluation software (GE). All sensorgrams were double reference subtracted and fit using a 1:1 Langmuir binding model.
Target sequence in this assay (P05231 30-212 limits assumed): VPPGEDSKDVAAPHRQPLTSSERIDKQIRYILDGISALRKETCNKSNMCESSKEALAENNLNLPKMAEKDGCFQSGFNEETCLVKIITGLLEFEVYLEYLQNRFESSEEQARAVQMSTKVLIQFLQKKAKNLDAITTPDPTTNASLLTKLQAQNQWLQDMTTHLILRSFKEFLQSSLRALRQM

Kd | koff | kon | Binder
559 pM | 0.000899 s⁻¹ | 1.61e+06 M⁻¹ s⁻¹ | B1
4450 pM | 0.00611 s⁻¹ | 1.37e+06 M⁻¹ s⁻¹ | B2
652 pM | 0.000912 s⁻¹ | 1.4e+06 M⁻¹ s⁻¹ | B3
9580 pM | 0.00799 s⁻¹ | 834000 M⁻¹ s⁻¹ | B4
2140 pM | 0.00196 s⁻¹ | 914000 M⁻¹ s⁻¹ | B5

The binders below were run against T1, human IL-6 (human, UniProt P05231 30-212) (assay: SPR Biacore, supernatant Ab on Protein A chip, 37 C).
T1 construct: IL-6 flowed over captured antibodies
Protocol: as §1
T1 sequence (P05231 30-212 limits assumed): as above

Kd | koff | kon | Binder
300 pM | 0.000626 s⁻¹ | 2.09e+06 M⁻¹ s⁻¹ | B6
311 pM | 0.000477 s⁻¹ | 1.53e+06 M⁻¹ s⁻¹ | B7
281 pM | 0.000551 s⁻¹ | 1.96e+06 M⁻¹ s⁻¹ | B8
498 pM | 0.000711 s⁻¹ | 1.43e+06 M⁻¹ s⁻¹ | B9
356 pM | 0.000579 s⁻¹ | 1.63e+06 M⁻¹ s⁻¹ | B10
273 pM | 0.000526 s⁻¹ | 1.92e+06 M⁻¹ s⁻¹ | B11
237 pM | 0.000367 s⁻¹ | 1.55e+06 M⁻¹ s⁻¹ | B12
293 pM | 0.000446 s⁻¹ | 1.53e+06 M⁻¹ s⁻¹ | B13
291 pM | 0.000391 s⁻¹ | 1.34e+06 M⁻¹ s⁻¹ | B14
34600 pM | 0.00591 s⁻¹ | 171000 M⁻¹ s⁻¹ | B15
283 pM | 0.000454 s⁻¹ | 1.6e+06 M⁻¹ s⁻¹ | B16
249 pM | 0.000413 s⁻¹ | 1.66e+06 M⁻¹ s⁻¹ | B17
278 pM | 0.000499 s⁻¹ | 1.8e+06 M⁻¹ s⁻¹ | B18
297 pM | 0.000423 s⁻¹ | 1.43e+06 M⁻¹ s⁻¹ | B19
274 pM | 0.000459 s⁻¹ | 1.67e+06 M⁻¹ s⁻¹ | B20
288 pM | 0.000446 s⁻¹ | 1.55e+06 M⁻¹ s⁻¹ | B21

Kd | koff | kon | Binder
246 pM | 0.000419 s⁻¹ | 1.7e+06 M⁻¹ s⁻¹ | B22
279 pM | 0.000474 s⁻¹ | 1.7e+06 M⁻¹ s⁻¹ | B23
241 pM | 0.000459 s⁻¹ | 1.91e+06 M⁻¹ s⁻¹ | B24
1330 pM | 0.00137 s⁻¹ | 1.03e+06 M⁻¹ s⁻¹ | B25
465 pM | 0.00048 s⁻¹ | 1.03e+06 M⁻¹ s⁻¹ | B26
286 pM | 0.000449 s⁻¹ | 1.57e+06 M⁻¹ s⁻¹ | B27
601 pM | 0.00108 s⁻¹ | 1.79e+06 M⁻¹ s⁻¹ | B28
268 pM | 0.000458 s⁻¹ | 1.7e+06 M⁻¹ s⁻¹ | B29
239 pM | 0.000542 s⁻¹ | 2.27e+06 M⁻¹ s⁻¹ | B30
3430 pM | 0.00404 s⁻¹ | 1.18e+06 M⁻¹ s⁻¹ | B31
274 pM | 0.00043 s⁻¹ | 1.57e+06 M⁻¹ s⁻¹ | B32
322 pM | 0.000384 s⁻¹ | 1.19e+06 M⁻¹ s⁻¹ | B33
327 pM | 0.000532 s⁻¹ | 1.63e+06 M⁻¹ s⁻¹ | B34
261 pM | 0.00045 s⁻¹ | 1.73e+06 M⁻¹ s⁻¹ | B35
310 pM | 0.000441 s⁻¹ | 1.42e+06 M⁻¹ s⁻¹ | B36
280 pM | 0.000481 s⁻¹ | 1.72e+06 M⁻¹ s⁻¹ | B37
